Assay results taken from patent US20250108132A1.

Target: purified cyno C3 protein (CompTech, CY113) (cynomolgous monkey (Macaca fascicularis))
Assay: sandwich ELISA; known concentrations of purified cyno C3 read on the human C3 kit, relative to human C3

cross-reactivity: 30%
Substance: human C3 ELISA kit (Abcam, ab108823) (antibody)
